{"source": "patent US20150118286A1", "key": {"[1]": {"biological_target": "Human tyrosinase (human), P14679", "sequence (P14679 19-529)": "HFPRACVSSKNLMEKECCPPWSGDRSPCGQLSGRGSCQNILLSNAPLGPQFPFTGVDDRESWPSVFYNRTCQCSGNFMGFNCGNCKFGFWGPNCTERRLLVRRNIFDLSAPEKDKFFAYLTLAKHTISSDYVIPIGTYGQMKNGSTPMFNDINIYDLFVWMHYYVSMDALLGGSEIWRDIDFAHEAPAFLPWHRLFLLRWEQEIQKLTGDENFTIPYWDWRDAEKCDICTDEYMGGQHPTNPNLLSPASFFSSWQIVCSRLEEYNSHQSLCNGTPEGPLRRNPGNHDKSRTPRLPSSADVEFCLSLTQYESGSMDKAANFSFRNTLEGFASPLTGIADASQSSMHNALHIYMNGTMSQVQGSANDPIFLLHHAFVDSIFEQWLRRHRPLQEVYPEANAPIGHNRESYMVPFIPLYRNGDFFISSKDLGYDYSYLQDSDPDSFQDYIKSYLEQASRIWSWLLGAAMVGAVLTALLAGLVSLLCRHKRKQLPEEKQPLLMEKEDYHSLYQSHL", "assay": "cell-based or functional assay"}, "[2]": {"biological_target": "Mushroom tyrosinase (mushroom), C7FF04", "assay": "cell-based or functional assay"}}}
{"binder": "RRRYWYYR", "note": "[P17 peptide]", "values": [{"measurement": "reduction of total melanin content in MNTI cells (3 days, peptide at twice the IC50)", "setting": "[1]", "result": 38, "unit": "%"}]}
{"binder": "RRWWRRYY", "note": "[P16 peptide]", "values": [{"measurement": "reduction of total melanin content in MNTI cells (3 days, peptide at twice the IC50)", "setting": "[1]", "result": 45, "unit": "%"}]}
{"binder": "RRYWYWRR", "note": "[P18 peptide]", "values": [{"measurement": "reduction of total melanin content in MNTI cells (3 days, peptide at twice the IC50)", "setting": "[1]", "result": 41, "unit": "%"}]}
{"binder": "RRFVCC (modifications not checked)", "note": "[P15 peptide]", "values": [{"measurement": "IC50 [µM], mushroom tyrosinase inhibition (dopachrome OD 475 nm, L-tyrosine substrate)", "setting": "[2]", "result": 1120, "unit": "µM"}]}
